This is an account of results in article PMC7618510, “The accessory protein MRAP2 directly interacts with melanocortin-3 receptor to enhance signaling” (Science signaling, 2025).

Data set [1] addresses T1, HA-Halo-MC3R (melanocortin-3 receptor) (human, UniProt P41968 1-323, CA-Sulfo646 dye on the Halo tag (SiMPull)).
T1 construct: melanocortin-3 receptor (MC3R), human; S14 and the UBIRA repository (DOI 10.25500/edata.bham.00001385); also called ss-HA-Halo-MC3R; source: HEK293 (AD-293), transiently transfected, in lysate (LMNG-CHS) or in cells; not shown: HA, N-terminal, kept; Halo, N-terminal, kept
As to the kind of experiment: single-molecule pull-down (SiMPull) with photobleaching step counting; two colours: lysate of HEK293 cells cotransfected with 300 ng HA-Halo-tagged and 600 ng FLAG-CLIP-tagged plasmid, labelled at the surface with CA-Sulfo646 and BC-DY547, lysed in 0.5% LMNG/0.05% CHS; HA-tagged protein immobilised on HA antibody; co-localised spots and bleaching steps counted by TIRF. To be noted: partners not purified.

Data set [2] concerns the molecule itself. As to the kind of experiment: single-molecule pull-down (SiMPull) with photobleaching step counting; one colour: HEK293 cells expressing the HA-Halo-tagged protein alone, labelled at the surface with membrane-impermeable CA-Sulfo646, lysed in 0.5% LMNG/0.05% CHS, immobilised by the HA tag on slides with biotinylated HA antibody, single molecules imaged by TIRF.

T1 sequence (P41968 whole entry): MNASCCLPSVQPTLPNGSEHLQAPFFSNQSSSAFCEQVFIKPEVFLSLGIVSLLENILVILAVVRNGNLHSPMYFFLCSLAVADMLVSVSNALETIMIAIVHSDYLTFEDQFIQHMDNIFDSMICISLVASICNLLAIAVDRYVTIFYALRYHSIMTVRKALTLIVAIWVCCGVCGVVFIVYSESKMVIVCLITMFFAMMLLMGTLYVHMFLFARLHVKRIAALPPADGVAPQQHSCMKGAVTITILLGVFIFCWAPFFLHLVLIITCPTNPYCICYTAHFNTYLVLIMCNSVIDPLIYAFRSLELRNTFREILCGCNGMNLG

B1: FLAG-CLIP-MRAP2 (melanocortin-2 receptor accessory protein 2) (natural protein, human, UniProt Q96G30 1-205, looked up)
chain: MSAQRLISNRTSQQSASNSDYTWEYEYYEIGPVSFEGLKAHKYSIVIGFWVGLAVFVIFMFFVLTLLTKTGAPHQDNAESSEKRFRMNSFVSDFGRPLEPDKVFSRQGNEESRSLFHCYINEVERLDRAKACHQTTALDSDVQLQEAIRSSGQPEEELNRLMKFDIPNFVNTDQNYFGEDDLLISEPPIVLETKPLSQTSHKDLD
modifications: BC-DY547 (CLIP-surface 547) dye on the CLIP tag
notes: melanocortin-2 receptor accessory protein 2 (MRAP2), human; S14 and the UBIRA repository; also called ss-FLAG-CLIP-MRAP2; source: HEK293 (AD-293), transiently transfected, in lysate (LMNG-CHS); not shown: FLAG, N-terminal, kept; CLIP, N-terminal, kept
In the case of B1, the stoichiometry N (usually a count of units in the complex or per binding partner) in data set [1] came to 1 MRAP2 per MC3R.

B2: mGluR2 (receptor, UniProt P31421 19-872, looked up)
chain: EGPAKKVLTLEGDLVLGGLFPVHQKGGPAEECGPVNEHRGIQRLEAMLFALDRINRDPHLLPGVRLGAHILDSCSKDTHALEQALDFVRASLSRGADGSRHICPDGSYATHSDAPTAVTGVIGGSYSDVSIQVANLLRLFQIPQISYASTSAKLSDKSRYDYFARTVPPDFFQAKAMAEILRFFNWTYVSTVASEGDYGETGIEAFELEARARNICVATSEKVGRAMSRAAFEGVVRALLQKPSARVAVLFTRSEDARELLAATQRLNASFTWVASDGWGALESVVAGSERAAEGAITIELASYPISDFASYFQSLDPWNNSRNPWFREFWEERFHCSFRQRDCAAHSLRAVPFEQESKIMFVVNAVYAMAHALHNMHRALCPNTTHLCDAMRPVNGRRLYKDFVLNVKFDAPFRPADTDDEVRFDRFGDGIGRYNIFTYLRAGSGRYRYQKVGYWAEGLTLDTSFIPWASPSAGPLPASRCSEPCLQNEVKSVQPGEVCCWLCIPCQPYEYRLDEFTCADCGLGYWPNASLTGCFELPQEYIRWGDAWAVGPVTIACLGALATLFVLGVFVRHNATPVVKASGRELCYILLGGVFLCYCMTFVFIAKPSTAVCTLRRLGLGTAFSVCYSALLTKTNRIARIFGGAREGAQRPRFISPASQVAICLALISGQLLIVAAWLVVEAPGTGKETAPERREVVTLRCNHRDASMLGSLAYNVLLIALCTLYAFKTRKCPENFNEAKFIGFTMYTTCIIWLAFLPIFYVTSSDYRVQTTTMCVSVSLSGSVVLGCLFAPKLHIILFQPQKNVVSHRAPTSRFGSAAPRASANLGQGSGSQFVPTVCNGREVVDSTTSSL
notes: metabotropic glutamate receptor 2 (mGluR2); also called dimeric GPCR mGluR2
In the case of B2, the “stoichiometry N” value in data set [2] is 2.
